From patent US20160347808A1 (IMMATICS BIOTECHNOLOGIES, published 2016)
Blank lines part the entries; values can stand above or below the binder they belong to. Square brackets hold non-standard residues; d marks the D form. Ends that are not written are not given here. pS = N[C@@H](COP(=O)(O)O)C(=O)O

Molecular target: T1, HLA-A*02:01 (peptide-receptive MHC class I monomer from UV-ligand exchange) (human)
T1 construct: Monomers were captured on streptavidin-coated plates
Assay: UV-exchange ELISA (anti-b2m); exchange yield grade: + >=10%, ++ >=20%, +++ >=50%, ++++ >=75%
Description: Candidate peptides for T cell based therapies according to the present invention were further tested for their MHC binding capacity (affinity). The individual peptide-MHC complexes were produced by UV-ligand exchange, where a UV-sensitive peptide is cleaved upon UV-irradiation, and exchanged with the peptide of interest as analyzed. Only peptide candidates that can effectively bind and stabilize the peptide-receptive MHC molecules prevent dissociation of the MHC complexes. To determine the yield of the exchange reaction, an ELISA was performed based on the detection of the light chain (β2m) of stabilized MHC complexes. The assay was performed as generally described in Rodenko et al. (Rodenko et al., 2006).
96 well MAXISorp plates (NUNC) were coated over night with 2 ug/ml streptavidin in PBS at room temperature, washed 4× and blocked for 1 h at 37° C. in 2% BSA containing blocking buffer. Refolded HLA-A*02:01/MLA-001 monomers served as standards, covering the range of 15-500 ng/ml. Peptide-MHC monomers of the UV-exchange reaction were diluted 100 fold in blocking buffer. Samples were incubated for 1 h at 37° C., washed four times, incubated with 2 ug/ml HRP conjugated anti-β2m for 1 h at 37° C., washed again and detected with TMB solution that is stopped with […]. Absorption was measured at 450 nm. Candidate peptides that show a high exchange yield (preferably higher than 50%, most preferred higher than 75%) are generally preferred for a generation and production of antibodies or fragments thereof, and/or T cell receptors or fragments thereof, as they show sufficient avidity to the MHC molecules and prevent dissociation of the MHC complexes.

- peptide exchange yield: 50 to 75%
Binder: FLVDGPRVQL [peptide FLVDGPRVQL (SEQ ID NO 188)]

- peptide exchange yield: ≥ 75%
Binder: SILDDSFKL [peptide SILDDSFKL (SEQ ID NO 42)]

- peptide exchange yield: 50 to 75%
Binder: VLVDQSWVL [peptide VLVDQSWVL (SEQ ID NO 16)]

- peptide exchange yield: ≥ 75%
Binder: KMLDEILLQL [peptide KMLDEILLQL (SEQ ID NO 164)]

- peptide exchange yield: 50 to 75%
Binder: YLAHFIEGL [peptide YLAHFIEGL (SEQ ID NO 169)]

- peptide exchange yield: 50 to 75%
Binder: GLHNVVYGI [peptide GLHNVVYGI (SEQ ID NO 187)]

- peptide exchange yield: 50 to 75%
Binder: LLYGKYVSV [peptide LLYGKYVSV (SEQ ID NO 31)]

- peptide exchange yield: 50 to 75%
Binder: YLKDGDVML [peptide YLKDGDVML (SEQ ID NO 20)]

- peptide exchange yield: 50 to 75%
Binder: SLESKLTSV [peptide SLESKLTSV (SEQ ID NO 44)]

- peptide exchange yield: 20 to 50%
Binder: GLASKENFSNVSL [peptide GLASKENFSNVSL (SEQ ID NO 26)]

- peptide exchange yield: 50 to 75%
Binder: GLFAGLGGAGA [peptide GLFAGLGGAGA (SEQ ID NO 37)]

- peptide exchange yield: 50 to 75%
Binder: KLGDLMVLL [peptide KLGDLMVLL (SEQ ID NO 173)]

- peptide exchange yield: 10 to 20%
Binder: GLSSAYGGL [peptide GLSSAYGGL (SEQ ID NO 30)]

- peptide exchange yield: ≥ 75%
Binder: SLNKWIFTV [peptide SLNKWIFTV (SEQ ID NO 182)]

- peptide exchange yield: 20 to 50%
Binder: SLAPTPVSA [peptide SLAPTPVSA (SEQ ID NO 38)]

- peptide exchange yield: 50 to 75%
Binder: KMSEKILLL [peptide KMSEKILLL (SEQ ID NO 186)]

- peptide exchange yield: 20 to 50%
Binder: YLFREPATI [peptide YLFREPATI (SEQ ID NO 178)]

- peptide exchange yield: 50 to 75%
Binder: ALWEKNTHL [peptide ALWEKNTHL (SEQ ID NO 33)]

- peptide exchange yield: ≥ 75%
Binder: RLIPDTLYSV [peptide RLIPDTLYSV (SEQ ID NO 3)]

- peptide exchange yield: 50 to 75%
Binder: TLMAEMHVV [peptide TLMAEMHVV (SEQ ID NO 50)]

- peptide exchange yield: ≥ 75%
Binder: QLFSEIHNL [peptide QLFSEIHNL (SEQ ID NO 191)]

- peptide exchange yield: 50 to 75%
Binder: GLIRFPLMTI [peptide GLIRFPLMTI (SEQ ID NO 168)]

- peptide exchange yield: 50 to 75%
Binder: AISEVIGKITA [peptide AISEVIGKITA (SEQ ID NO 189)]

- peptide exchange yield: 50 to 75%
Binder: TLLGGKEAQALGV [peptide TLLGGKEAQALGV (SEQ ID NO 175)]

- peptide exchange yield: ≥ 75%
Binder: WLFDDGGLTL [peptide WLFDDGGLTL (SEQ ID NO 5)]

- peptide exchange yield: 20 to 50%
Binder: RLQETEGMVAV [peptide RLQETEGMVAV (SEQ ID NO 171)]

- peptide exchange yield: 50 to 75%
Binder: NLFDLGGQYLRV [peptide NLFDLGGQYLRV (SEQ ID NO 181)]

- peptide exchange yield: 50 to 75%
Binder: RLYTKLLNEA [peptide RLYTKLLNEA (SEQ ID NO 19)]

- peptide exchange yield: 50 to 75%
Binder: VLIDHRWVL [peptide VLIDHRWVL (SEQ ID NO 21)]

- peptide exchange yield: ≥ 75%
Binder: SLADRLIGV [peptide SLADRLIGV (SEQ ID NO 25)]

- peptide exchange yield: 50 to 75%
Binder: FLSSLKGGLL [peptide FLSSLKGGLL (SEQ ID NO 18)]

- peptide exchange yield: 20 to 50%
Binder: LLADEDSSYL [peptide LLADEDSSYL (SEQ ID NO 27)]

- peptide exchange yield: ≥ 75%
Binder: ALTEIQEFI [peptide ALTEIQEFI (SEQ ID NO 28)]

- peptide exchange yield: 50 to 75%
Binder: AMAEMVLQV [peptide AMAEMVLQV (SEQ ID NO 190)]

- peptide exchange yield: 50 to 75%
Binder: SVIDHIHLISV [peptide SVIDHIHLISV (SEQ ID NO 167)]

- peptide exchange yield: 50 to 75%
Binder: TLQEVVTGV [peptide TLQEVVTGV (SEQ ID NO 183)]

- peptide exchange yield: ≥ 75%
Binder: RLLDFPEAMVL [peptide RLLDFPEAMVL (SEQ ID NO 165)]

- peptide exchange yield: 50 to 75%
Binder: GLDDRYSLV [peptide GLDDRYSLV (SEQ ID NO 46)]

- peptide exchange yield: 50 to 75%
Binder: ALAELLHGA [peptide ALAELLHGA (SEQ ID NO 45)]

- peptide exchange yield: 20 to 50%
Binder: KLYERCEVV [peptide KLYERCEVV (SEQ ID NO 47)]

- peptide exchange yield: 50 to 75%
Binder: LLLDTVTMQV [peptide LLLDTVTMQV (SEQ ID NO 172)]

- peptide exchange yield: ≥ 75%
Binder: ILLDDNMQIRL [peptide ILLDDNMQIRL (SEQ ID NO 174)]

- peptide exchange yield: 50 to 75%
Binder: SLLDENNVSSYL [peptide SLLDENNVSSYL (SEQ ID NO 184)]

- peptide exchange yield: 20 to 50%
Binder: RTLDKVLEV [peptide RTLDKVLEV (SEQ ID NO 176)]

- peptide exchange yield: 20 to 50%
Binder: QVWEIQHTV [peptide QVWEIQHTV (SEQ ID NO 51)]

- peptide exchange yield: 50 to 75%
Binder: VLDGVLMEL [peptide VLDGVLMEL (SEQ ID NO 24)]

- peptide exchange yield: 50 to 75%
Binder: VLYTGVVRV [peptide VLYTGVVRV (SEQ ID NO 185)]

- peptide exchange yield: 50 to 75%
Binder: QMLDVAIRV [peptide QMLDVAIRV (SEQ ID NO 29)]

- peptide exchange yield: 20 to 50%
Binder: FLDASDPAL [peptide FLDASDPAL (SEQ ID NO 48)]

- peptide exchange yield: 20 to 50%
Binder: ILDDSFKLL [peptide ILDDSFKLL (SEQ ID NO 41)]

- peptide exchange yield: 50 to 75%
Binder: ILLEKSVSV [peptide ILLEKSVSV (SEQ ID NO 34)]

- peptide exchange yield: 50 to 75%
Binder: GLLEARGILGL [peptide GLLEARGILGL (SEQ ID NO 166)]

- peptide exchange yield: 20 to 50%
Binder: ALDSSNSMQTI [peptide ALDSSNSMQTI (SEQ ID NO 52)]

- peptide exchange yield: 50 to 75%
Binder: KLLDLTVRI [peptide KLLDLTVRI (SEQ ID NO 35)]

- peptide exchange yield: 50 to 75%
Binder: ALLQGAIESV [peptide ALLQGAIESV (SEQ ID NO 177)]

- peptide exchange yield: 50 to 75%
B1: peptide RLLJPLSSA (SEQ ID NO 179) (peptide)
peptide: RLL[pS]PLSSA
notes: Printed with J for phosphoserine; the plain residue at position 4 is serine

- peptide exchange yield: 50 to 75%
Binder: GLIDEVMVL (also called CYP2W1-001) [peptide GLIDEVMVL (SEQ ID NO 22)]

- peptide exchange yield: 50 to 75%
Binder: FLDANGHFV [peptide FLDANGHFV (SEQ ID NO 23)]

- peptide exchange yield: 50 to 75%
Binder: GLLESPSIFNFTA [peptide GLLESPSIFNFTA (SEQ ID NO 36)]

- peptide exchange yield: 20 to 50%
Binder: ALLPRYFFL [peptide ALLPRYFFL (SEQ ID NO 2)]

- peptide exchange yield: 50 to 75%
Binder: ALAGGITMV [peptide ALAGGITMV (SEQ ID NO 170)]

- peptide exchange yield: 20 to 50%
Binder: TLDAAQPRV [peptide TLDAAQPRV (SEQ ID NO 43)]

- peptide exchange yield: 20 to 50%
Binder: KLNTETFGV [peptide KLNTETFGV (SEQ ID NO 32)]

- peptide exchange yield: 20 to 50%
Binder: ALSNVIHKV [peptide ALSNVIHKV (SEQ ID NO 40)]

- peptide exchange yield: 50 to 75%
Binder: RLAELTVDEFL [peptide RLAELTVDEFL (SEQ ID NO 4)]

- peptide exchange yield: 50 to 75%
Binder: ALAAARVEL [peptide ALAAARVEL (SEQ ID NO 17)]
